The source of these data is patent publication US8357518B2, “Thermostable enzymes for the hydrolysis of mannan-containing polysaccharides” (The Board of Trustees of the University of Illinois, priority 2010, dated 2013).

A word on the kcat/Km: it is the second-order rate constant that governs catalysis at low substrate concentration.

Holding throughout (assay): Catalytic efficiency with oligosaccharides, HPAEC (Man5A-TM2)
Holding throughout (type): biochemical, Caldanaerobius polysaccharolyticus
Holding throughout (conditions): other: Man5A-TM2 0.3 μM, oligosaccharide 30 μM, citrate buffer 50 mM, pH 5.5, 5 min, triplicate

Substrate in data set [1]: OC[C@H]1O[C@@H](O[C@H]2[C@H](O)[C@@H](O)[C@H](O[C@H]3[C@H](O)[C@@H](O)[C@H](O[C@H]4[C@H](O)[C@@H](O)[C@H](O[C@H]5[C@H](O)[C@@H](O)C(O)O[C@@H]5CO)O[C@@H]4CO)O[C@@H]3CO)O[C@@H]2CO)[C@H](O)[C@@H](O)[C@@H]1O
The procedure:
(§1) Cloning, expression, and purification of Man5A-TM1, Man5A-TM2 and Man5B. C. polysaccharolyticus was cultured in TYG medium and DNA was isolated from mid-log cultures and purified using the Qiagen DNeasy Blood and Tissue kit with an integrated RNase treatment step. The genome of C. polysaccharolyticus was partially sequenced by the W. M. Keck Biotechnology Center at the University of Illinois at Urbana-Champaign. A Newbler assembly was generated which is comprised of ½ plate of FLX PE 454 data and ½ plate of 8 kb paired-end GSFLX Titanium data using a Genome Sequencer instrument from 454 Life Sciences (Branford, Conn.). The partial genome sequence was uploaded onto the Rapid Annotation using Subsystem Technology (RAST) server (Aziz et al., BMC Genomics, 9:75, 2008). Auto-annotation of the C. polysaccharolyticus partial genome sequence identified ORF0760 as a gene predicted to encode a bifunctional β-D-mannanase/endoglucanase (Man5B). Man5A was previously identified in a recombinant phage library of C. polysaccharolyticus genomic DNA, which was screened for endoglucanase activity (Cann et al., J Bacteriol, 181:1643, 1999) and the full sequence of this gene was also identified in the partial genome sequence for C. polysaccharolyticus.
(§2) The DNA sequence corresponding to man5B was amplified by the PicoMaxx high fidelity PCR kit using genomic DNA as the template with the primer set Man5B-Forward and Man5B-Reverse (Table 1-1). The primers were engineered to incorporate a 5′-[…] (SEQ ID NO: 54) extension in Man5B-F and a 5′-[…] (SEQ ID NO: 55) extension in Man5B-R, which facilitated subsequent directional cloning. The resultant man5B amplicon was then digested with T4 DNA polymerase exonuclease activity, annealed with a similarly digested pET-46b vector and introduced into E. coli JM109 by electroporation. Man5A-TM1 was amplified using genomic DNA as template with primers Man5A-TM1-F and Man5A-TM1-R (Table 1-1). The primer sets for Man5A-TM1 and Man5A-TM2 were designed to include 5′-NdeI and 3′-XhoI restriction sites for subsequent directional cloning. The resulting amplicons were then cloned into the pGEM-T vector via TA-cloning and subcloned in-frame with the hexahistidine (His6) encoding sequence of a modified pET-28a expression vector via its NdeI-XhoI polylinker site. The truncated protein Man5A-TM2 originally named ManA-SLH-CBD was cloned as described in a previous study (Cann et al., J Bacteriol, 181:1643, 1999). Expression of each of the resulting gene constructs yielded fusion proteins containing an N-terminal polyhistidine tag sequence to facilitate affinity purification via metal chelate chromatography. The resulting plasmid constructs pET46-Man5B, pET28a-Man5A-TM1, and pET-28a-Man5A-TM2 were sequenced to confirm the integrity of the cloned genes (W. M. Keck Center for Comparative and Functional Genomics at the University of Illinois at Urbana-Champaign).
(§3) The plasmid constructs were then introduced into E. coli BL-21 CodonPlus (DE3) RIL competent cells by heat shock, and grown overnight in lysogeny broth (LB) agar medium supplemented with ampicillin (100 μg/mL) and chloramphenicol (50 μg/mL) at 37° C. After 12 h, single colonies were selected and used to inoculate fresh LB (10 mL) supplemented with the antibiotics above at the same concentrations, followed by culturing with aeration for 8 h at 37° C. The pre-cultures were then inoculated into fresh LB (1 L) supplemented with ampicillin and chloramphenicol and the cultures were incubated at 37° C. with vigorous aeration (225 rpm/min). The cultures were grown to an optical density of 0.3 at 600 nm, and the temperature was shifted to 16° C. and gene expression was induced by the addition of 0.1 mM isopropyl β-D-thiogalactopyranoside (IPTG). […]

Substrate in data set [2]: OC[C@H]1O[C@@H](O[C@H]2[C@H](O)[C@H](O)[C@H](O[C@H]3[C@H](O)[C@H](O)[C@H](O[C@H]4[C@H](O)[C@H](O)C(O)O[C@@H]4CO)O[C@@H]3CO)O[C@@H]2CO)[C@@H](O)[C@@H](O)[C@@H]1O
The procedure: as §1, §2, §3

Substrate in data set [3]: OC[C@H]1O[C@@H](O[C@H]2[C@H](O)[C@@H](O)[C@H](O[C@H]3[C@H](O)[C@@H](O)[C@H](O[C@H]4[C@H](O)[C@@H](O)[C@H](O[C@H]5[C@H](O)[C@@H](O)[C@H](O[C@H]6[C@H](O)[C@@H](O)C(O)O[C@@H]6CO)O[C@@H]5CO)O[C@@H]4CO)O[C@@H]3CO)O[C@@H]2CO)[C@H](O)[C@@H](O)[C@@H]1O
The method, then: as §1, §2, §3

Substrate in data set [4]: OC[C@H]1O[C@@H](O[C@H]2[C@H](O)[C@H](O)[C@H](O[C@H]3[C@H](O)[C@H](O)[C@H](O[C@H]4[C@H](O)[C@H](O)[C@H](O[C@H]5[C@H](O)[C@H](O)C(O)O[C@@H]5CO)O[C@@H]4CO)O[C@@H]3CO)O[C@@H]2CO)[C@@H](O)[C@@H](O)[C@@H]1O
The procedure: as §1, §2, §3

Substrate in data set [5]: OC[C@H]1O[C@@H](O[C@H]2[C@H](O)[C@@H](O)[C@H](O[C@H]3[C@H](O)[C@@H](O)[C@H](O[C@H]4[C@H](O)[C@@H](O)C(O)O[C@@H]4CO)O[C@@H]3CO)O[C@@H]2CO)[C@H](O)[C@@H](O)[C@@H]1O
The procedure: as §1, §2, §3

Substrate in data set [6]: OC[C@H]1O[C@@H](O[C@H]2[C@H](O)[C@H](O)[C@H](O[C@H]3[C@H](O)[C@H](O)[C@H](O[C@H]4[C@H](O)[C@H](O)[C@H](O[C@H]5[C@H](O)[C@H](O)[C@H](O[C@H]6[C@H](O)[C@H](O)C(O)O[C@@H]6CO)O[C@@H]5CO)O[C@@H]4CO)O[C@@H]3CO)O[C@@H]2CO)[C@@H](O)[C@@H](O)[C@@H]1O
The procedure: as §1, §2, §3

B1: Caldanaerobius polysaccharolyticus endo-β-mannanase Man5A truncation mutant Man5A-TM2, SEQ ID NO: 29 (Caldanaerobius polysaccharolyticus) (protein)
chain: AGTSGDGRFHVVGNKIVDPDGKDFIIKGVNIQGYRSWEKRSVLQDVHLIADVWKFNTVRLNCFIGQNNWGEGTGANNDIDAIIKAFTAKKVVVEIDLHDTTGYPPLSNPPPAPGQPSLDQAIAWFKELAAKYKDNPYVWFNTMNEPGSSTAPLDPQWKVANEEIIKAIRSTGADNIIVVDGWSYANEGIEQNTPTVDEKRSAVLTYGQDLLNADSAKNTIFAFHNYNEGDIQKKVEDYIDRANAKGLYVFMEEYGKDYSDAAKEGVKSGLQAVMNKGAGRIYWNWDGYDLYDLTSGTGRGSGWEINKTDGSKPTNLSWVGDKIWDDNHGITPTFDDQNPKVDLALERLIANNNGFKAGDKVQFTTFLRNSGDLPIGKDSKVVVKFYVDGVQLGDPVEISGGIAVGQRIPVTSPELTVSKTDFTVKAVIDSSSTYADGAEDAVIENNWIEAAFNSTAPSSGYELVVTGIKITPDTVKEGDYVQAQVTVANQGPEATPVTNIIGWFYVNGYYYTLDDAAKSCAEQDNVTLKPGESITLSTKVKYRAAAPFNFSFVLENLYADDQNQSNNSITVNVPVK
B1: the kcat/Km in data set [1] stood at 2200 ± 300 M⁻¹ s⁻¹; in data set [2], 11000 ± 1000 M⁻¹ s⁻¹; in data set [3] it was 25000 ± 8000 M⁻¹ s⁻¹; in data set [4] it was 12000 ± 2000 M⁻¹ s⁻¹; in data set [5] it was 1800 ± 500 M⁻¹ s⁻¹; in data set [6], 28000 ± 8000 M⁻¹ s⁻¹.
